Each sequence was assayed on Escherichia coli TOP10 (assay: shrunken log2 fold change of peptide-encoding DNA abundance (4.5 h post-induction vs induction); higher = less antimicrobial activity (less host growth inhibition)). Details: time post-induction: 4.5 h; library: site-saturation at positions 5, 18, 19, 20.
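Note: peptides expressed intracellularly from a pBAD plasmid library in pooled LB shake-flask culture, induced with 0.3% L-arabinose, DNA abundance read by NGS, three biological replicates, DESeq2 with apeglm shrinkage.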

Point of comparison: RRIRSRPPRLPRPRPRPDAAPRP, “shrunken log2 fold change” value 1.05. Against it:
- RRIRERPPRLPRPRPRPPEIPRP — lower, 0.115
- RRIRNRPPRLPRPRPRPFKSPRP — lower, -0.014
- RRIRDRPPRLPRPRPRPAKAPRP — lower, 0.0972
- RRIRYRPPRLPRPRPRPSDSPRP — lower, -0.191
- RRIRHRPPRLPRPRPRPVSRPRP — lower, -0.0482
- RRIRQRPPRLPRPRPRPWPRPRP — lower, 0.014
- RRIRSRPPRLPRPRPRPRDVPRP — lower, -0.0918
- RRIRFRPPRLPRPRPRPQTSPRP — lower, -0.449
- RRIRIRPPRLPRPRPRPWIWPRP — lower, -0.109
- RRIRSRPPRLPRPRPRPIQQPRP — lower, -0.0226
- RRIRFRPPRLPRPRPRPSGFPRP — lower, -0.207
- RRIRFRPPRLPRPRPRPISAPRP — lower, 0.0624
- RRIRHRPPRLPRPRPRPFYEPRP — lower, -0.108
- RRIRSRPPRLPRPRPRPTYHPRP — lower, -0.492
- RRIRCRPPRLPRPRPRPGGPPRP — lower, 0.108
- RRIRDRPPRLPRPRPRPVSVPRP — lower, -0.0329
- RRIRFRPPRLPRPRPRPKCTPRP — lower, -0.243
- RRIRPRPPRLPRPRPRPEAHPRP — lower, 0.0215
- RRIRNRPPRLPRPRPRPAFSPRP — lower, -0.183
- RRIRNRPPRLPRPRPRPVNVPRP — lower, -0.304
- RRIRSRPPRLPRPRPRPFPRPRP — lower, 0.356
- RRIRHRPPRLPRPRPRPKTIPRP — lower, -0.486
- RRIRKRPPRLPRPRPRPFAVPRP — lower, -0.14
- RRIRVRPPRLPRPRPRPLTHPRP — lower, -0.439
- RRIRWRPPRLPRPRPRPPGLPRP — lower, 0.601
- RRIRYRPPRLPRPRPRPTKMPRP — lower, -0.22
- RRIRVRPPRLPRPRPRPILCPRP — lower, 0.0143
- RRIRHRPPRLPRPRPRPSYHPRP — lower, -1.11
- RRIRHRPPRLPRPRPRPNQDPRP — lower, -0.337
- RRIRQRPPRLPRPRPRPAEPPRP — lower, 0.157
- RRIRARPPRLPRPRPRPQFGPRP — lower, -0.217
- RRIRVRPPRLPRPRPRPGCKPRP — lower, 0.32
- RRIRERPPRLPRPRPRPMGNPRP — lower, 0.0248
- RRIRLRPPRLPRPRPRPVMMPRP — lower, -0.288
- RRIRLRPPRLPRPRPRPKNNPRP — lower, -0.297
- RRIRHRPPRLPRPRPRPNTDPRP — lower, -0.438
- RRIRSRPPRLPRPRPRPPMAPRP — lower, 0.169
- RRIRTRPPRLPRPRPRPFAVPRP — lower, -0.0779
- RRIRPRPPRLPRPRPRPEVGPRP — lower, 0.353
- RRIRGRPPRLPRPRPRPCVHPRP — lower, 0.107
- RRIRKRPPRLPRPRPRPCQHPRP — lower, -0.167
- RRIRKRPPRLPRPRPRPTDYPRP — lower, 0.124
- RRIRVRPPRLPRPRPRPIMEPRP — lower, 0.0384
- RRIRHRPPRLPRPRPRPVEPPRP — lower, 0.109
- RRIRFRPPRLPRPRPRPSGPPRP — lower, 0.21
- RRIRRRPPRLPRPRPRPNTDPRP — lower, -0.106
- RRIRIRPPRLPRPRPRPDQSPRP — lower, -0.138
- RRIRRRPPRLPRPRPRPWYLPRP — lower, -0.313
- RRIRNRPPRLPRPRPRPLPRPRP — lower, 0.102
- RRIRHRPPRLPRPRPRPSVDPRP — lower, 0.0776
- RRIRYRPPRLPRPRPRPYRGPRP — lower, -0.765
- RRIRFRPPRLPRPRPRPLMMPRP — lower, -0.347
- RRIRPRPPRLPRPRPRPTTTPRP — lower, 0.142
- RRIRGRPPRLPRPRPRPWFYPRP — lower, -0.4
- RRIRGRPPRLPRPRPRPCYHPRP — lower, -0.345
- RRIRERPPRLPRPRPRPTEDPRP — lower, -0.317
- RRIRRRPPRLPRPRPRPEGRPRP — within 0.2 log units, 0.89
- RRIRSRPPRLPRPRPRPLLDPRP — lower, 0.218
- RRIRLRPPRLPRPRPRPDESPRP — lower, 0.148
- RRIRSRPPRLPRPRPRPRRNPRP — lower, 0.128
- RRIRHRPPRLPRPRPRPTKIPRP — lower, -0.316
- RRIRFRPPRLPRPRPRPSFIPRP — lower, -0.831
- RRIRKRPPRLPRPRPRPIWAPRP — lower, -0.0352
- RRIRQRPPRLPRPRPRPWYPPRP — lower, -0.278
- RRIRPRPPRLPRPRPRPRESPRP — lower, 0.0752
- RRIRMRPPRLPRPRPRPVCNPRP — lower, -0.314
- RRIRHRPPRLPRPRPRPQRKPRP — lower, -0.191
- RRIRVRPPRLPRPRPRPRFQPRP — lower, 0.129
- RRIRQRPPRLPRPRPRPQWTPRP — lower, -0.126
- RRIRRRPPRLPRPRPRPPDKPRP — lower, 0.303
- RRIRMRPPRLPRPRPRPQCRPRP — lower, 0.253
- RRIRTRPPRLPRPRPRPQMFPRP — lower, 0.0287
- RRIRGRPPRLPRPRPRPAQNPRP — lower, 0.81
- RRIRQRPPRLPRPRPRPIYVPRP — lower, 0.0693
- RRIRTRPPRLPRPRPRPRNEPRP — lower, -0.0624
- RRIRERPPRLPRPRPRPDQDPRP — lower, -0.00875
- RRIRKRPPRLPRPRPRPNGGPRP — lower, 0.0116
- RRIRVRPPRLPRPRPRPFHCPRP — lower, -0.13
- RRIRPRPPRLPRPRPRPKQDPRP — lower, 0.0659
- RRIRVRPPRLPRPRPRPKIPPRP — lower, 0.0285
- RRIRTRPPRLPRPRPRPVGDPRP — lower, 0.21
- RRIRNRPPRLPRPRPRPECDPRP — lower, 0.203
- RRIRIRPPRLPRPRPRPLIGPRP — lower, -0.0888
- RRIRWRPPRLPRPRPRPCMCPRP — lower, -0.0735
- RRIRPRPPRLPRPRPRPKRLPRP — lower, 0.285
- RRIRDRPPRLPRPRPRPAFMPRP — lower, 0.699
- RRIRSRPPRLPRPRPRPVDDPRP — lower, -0.14
- RRIRMRPPRLPRPRPRPHHMPRP — lower, -0.321
- RRIRFRPPRLPRPRPRPKGSPRP — lower, 0.089
- RRIRTRPPRLPRPRPRPHMPPRP — lower, -0.422
- RRIRNRPPRLPRPRPRPEMFPRP — lower, 0.0119
- RRIRIRPPRLPRPRPRPDFPPRP — lower, 0.058
- RRIRTRPPRLPRPRPRPRTSPRP — lower, 0.098
- RRIRVRPPRLPRPRPRPAIHPRP — lower, -0.23
- RRIRLRPPRLPRPRPRPHKGPRP — lower, -0.0262
- RRIRCRPPRLPRPRPRPIGLPRP — lower, 0.00863
- RRIRPRPPRLPRPRPRPGFKPRP — lower, 0.13
- RRIRERPPRLPRPRPRPSNHPRP — lower, -0.91
- RRIRERPPRLPRPRPRPHLEPRP — lower, -0.0328
- RRIRERPPRLPRPRPRPKWWPRP — lower, 0.397
- RRIRMRPPRLPRPRPRPFTQPRP — lower, 0.215
- RRIRNRPPRLPRPRPRPKTRPRP — lower, 0.138
- RRIRVRPPRLPRPRPRPIHAPRP — lower, 0.098
- RRIRTRPPRLPRPRPRPTCPPRP — lower, -0.0738
- RRIRTRPPRLPRPRPRPDRVPRP — lower, -0.0605
- RRIRARPPRLPRPRPRPMCGPRP — lower, 0.121
- RRIRFRPPRLPRPRPRPETDPRP — lower, 0.114
- RRIRYRPPRLPRPRPRPGKAPRP — lower, -0.00206
- RRIRNRPPRLPRPRPRPIFIPRP — lower, -0.44
- RRIRERPPRLPRPRPRPHRTPRP — lower, -5.56e-05
- RRIRMRPPRLPRPRPRPTESPRP — lower, 0.0389
- RRIRVRPPRLPRPRPRPCHWPRP — lower, 0.169
- RRIRWRPPRLPRPRPRPYAKPRP — lower, -0.41
- RRIRIRPPRLPRPRPRPTKDPRP — lower, -0.491
- RRIRHRPPRLPRPRPRPIWDPRP — lower, -0.00794
- RRIRKRPPRLPRPRPRPFTVPRP — lower, -0.00947
- RRIRTRPPRLPRPRPRPQDMPRP — lower, -0.48
- RRIRWRPPRLPRPRPRPWPWPRP — lower, -0.0737
- RRIRERPPRLPRPRPRPHWKPRP — lower, -0.0167
- RRIRWRPPRLPRPRPRPIMYPRP — lower, -0.0994
- RRIRKRPPRLPRPRPRPVHYPRP — lower, -0.0126
- RRIRYRPPRLPRPRPRPIMLPRP — lower, -3.12
- RRIRSRPPRLPRPRPRPDGAPRP — lower, 0.289
- RRIRSRPPRLPRPRPRPWDNPRP — lower, 0.0157
- RRIRSRPPRLPRPRPRPAVNPRP — lower, 0.0811
- RRIRRRPPRLPRPRPRPLWTPRP — lower, 0.129
- RRIRRRPPRLPRPRPRPDMGPRP — lower, 0.00408
- RRIRHRPPRLPRPRPRPKQGPRP — lower, -0.0386
- RRIRARPPRLPRPRPRPIDLPRP — lower, 0.289
- RRIRCRPPRLPRPRPRPASCPRP — lower, 0.209
- RRIRIRPPRLPRPRPRPGKQPRP — lower, -0.0943
- RRIRRRPPRLPRPRPRPPSIPRP — lower, -0.212
- RRIRCRPPRLPRPRPRPLWTPRP — lower, -0.00711
- RRIRNRPPRLPRPRPRPLWMPRP — lower, -0.587
- RRIRMRPPRLPRPRPRPWQRPRP — lower, 0.179
- RRIRFRPPRLPRPRPRPMQRPRP — lower, 0.226
- RRIRGRPPRLPRPRPRPYEHPRP — lower, 0.256
- RRIRFRPPRLPRPRPRPQEFPRP — lower, 0.0412
- RRIRHRPPRLPRPRPRPPITPRP — lower, -0.346
- RRIRFRPPRLPRPRPRPDMMPRP — lower, -0.0389
- RRIRPRPPRLPRPRPRPKMHPRP — lower, 0.153
- RRIRWRPPRLPRPRPRPKGWPRP — lower, 0.845
- RRIRRRPPRLPRPRPRPKTQPRP — lower, 0.273
- RRIRRRPPRLPRPRPRPINDPRP — lower, -0.219
- RRIRFRPPRLPRPRPRPAEEPRP — lower, 0.105
- RRIRGRPPRLPRPRPRPTNCPRP — lower, 0.31
- RRIRHRPPRLPRPRPRPKQNPRP — lower, 0.139
- RRIRPRPPRLPRPRPRPMTNPRP — lower, -0.184
- RRIRLRPPRLPRPRPRPESRPRP — lower, 0.0418
